Results on 9 substances are retold here after patent US20250320281A1.

Common to all, as to experiment: cell-based or functional assay
For test [1], the target named is HIV-1 93IN905 envelope glycoprotein (Env) on pseudovirus (HIV-1).
In test [2] the target is HIV-1 Env of isolate 92RW021 (clade A pseudovirus) (HIV-1).
Test [3] deals with HIV-1 Env of isolate 92UG001 (clade D pseudovirus) (HIV-1).
For test [4], the target named is HIV-1 Env of isolate 93MW959 (clade C) (HIV-1 isolate 93MW959).
Test [5] has as its target HIV-1 Env of isolate LAVI_C3 (HIV-1).
Test [6] addresses HIV-1 Env of isolate MGRM-D-002 (clade D pseudovirus) (HIV-1).
For test [7], the target named is HIV-1 Env of isolate MGRM-D-011 (clade D pseudovirus) (HIV-1).
For test [8], the target named is HIV-1 Env of isolate MGRM-D-014 (clade D pseudovirus) (HIV-1).
Test [9] deals with HIV-1 Env of isolate QH0692.42 (Acute), clade B, on pseudovirus (HIV-1).
The target in test [10] is HIV-1 Env of pseudovirus MGRM-AG-013 (clade CRF_AG) (HIV-1).
Test [11] has as its target HIV-1 Env of pseudovirus MGRM-G-015 (HIV-1, clade G isolate MGRM-G-015).
For test [12], the target named is HIV-1 Env of pseudovirus MGRM-G-027 (HIV-1, clade G isolate MGRM-G-027).
The target in test [13] is HIV-1 Env of pseudovirus MGRM-G-028 (HIV-1, clade G isolate MGRM-G-028).
For test [14], the target named is HIV-1 envelope glycoprotein (Env) of isolate 92RW008, clade A (HIV-1).
Test [15] concerns the target HIV-1 envelope glycoprotein (Env) of isolate 93RW029, clade A (HIV-1).
For test [16], the target named is HIV-1 envelope glycoprotein (Env) of isolate MGRM-A-004, clade A (HIV-1).
Test [17] concerns the target HIV-1 envelope glycoprotein (Env) of isolate MGRM-A-005, clade A (HIV-1).
The target of test [18] is HIV-1 envelope glycoprotein (Env) of isolate MGRM-A-006, clade A (HIV-1).
Test [19] deals with HIV-1 envelope glycoprotein (Env) of isolate MGRM-A-011, clade A (HIV-1).
Test [20] has as its target HIV-1 Env of isolate 92WR020 (HIV-1).
In test [21] the target is HIV-1 Env of isolate 93MW959 (subtype C) (HIV-1).
For test [22], the target named is HIV-1 Env of isolate MG RM-D-003 (HIV-1).
In test [23] the target is HIV-1 Env of isolate MG RM-D-013 (HIV-1).
Test [24] addresses HIV-1 Env of isolate MGRM-AG-012 (subtype AG) (HIV-1).
In test [25] the target is HIV-1 Env of isolate MGRM-C-026 (pseudovirus) (HIV-1).
In test [26] the target is HIV-1 Env of pseudovirus isolate MGRM-G-028 (HIV-1).
Test [27] deals with HIV-1 envelope glycoprotein (Env) of isolate MGRM-C-014 (HIV-1).
In test [28] the target is HIV-1 envelope glycoprotein (Env) of isolate MGRM-C-024 (HIV-1).
The target of test [29] is HIV-1 94UG103 Env (pseudovirus, clade A) (HIV-1).
Test [30] deals with HIV-1 APV13 Env (pseudovirus, clade B) (HIV-1).
Test [31] concerns the target HIV-1 Env of isolate 92UG005 (clade D), on pseudovirus (HIV-1).
Test [32] has as its target HIV-1 MGRM-AG-005 Env (pseudovirus) (HIV-1).

A value given as a limit tells only on which side of the number the result lay.

Sequence of 5345_I01 (PGT-137) (antibody) (VH): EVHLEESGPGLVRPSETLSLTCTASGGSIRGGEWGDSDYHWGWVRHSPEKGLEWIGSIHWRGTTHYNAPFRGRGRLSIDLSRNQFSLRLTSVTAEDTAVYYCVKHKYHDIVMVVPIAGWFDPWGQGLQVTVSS
Sequence of 5345_I01 (PGT-137) (antibody) (VL): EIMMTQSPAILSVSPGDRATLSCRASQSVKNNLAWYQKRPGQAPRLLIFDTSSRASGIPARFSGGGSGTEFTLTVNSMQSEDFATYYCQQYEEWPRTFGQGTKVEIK
Sequence of 5329_C19 (PGT-136) (antibody) (VH): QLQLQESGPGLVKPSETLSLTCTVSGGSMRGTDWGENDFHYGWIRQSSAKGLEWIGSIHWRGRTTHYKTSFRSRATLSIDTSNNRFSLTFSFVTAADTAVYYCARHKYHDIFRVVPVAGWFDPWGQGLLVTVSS
Sequence of 5329_C19 (PGT-136) (antibody) (VL): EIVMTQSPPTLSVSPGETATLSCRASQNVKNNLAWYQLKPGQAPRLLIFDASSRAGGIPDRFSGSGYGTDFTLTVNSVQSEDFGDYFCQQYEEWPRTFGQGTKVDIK

For 2F5 (antibody), the IC50, pseudovirus neutralization in test [1] is above 50 µg/mL. Further, the IC50 (µg/ml), pseudovirus neutralization in test [2] was 4.16 µg/mL; in test [3], 13 µg/mL; in [4], above 50 µg/mL; in [6] it was 24.6 µg/mL; in test [7] it was above 50 µg/mL; in test [8] it was 2.22 µg/mL. In addition, the IC50 (µg/ml), pseudovirus neutralization in test [9] is 5.42 µg/mL; in test [11], 0.43 µg/mL; in [12] it was 0.28 µg/mL; in test [13], 2.24 µg/mL; in test [14], 10.4 µg/mL; in test [15], above 50 µg/mL. Moreover, the IC50 (µg/ml), pseudovirus neutralization was 7.49 µg/mL in test [16], 5.7 µg/mL in test [17], 15.7 µg/mL in test [18] and above 50 µg/mL in test [19]. The IC50 in [5] is above 50 µg/mL; in test [10], 1.79 µg/mL.

Regarding 2G12 (antibody), the IC50, pseudovirus neutralization in test [1] is above 50 µg/mL. For the same substance, the IC50 (µg/ml), pseudovirus neutralization in [2] is above 50 µg/mL; in test [3], above 50 µg/mL; in [4], above 50 µg/mL; in [6], above 50 µg/mL; in [7] it was 1.5 µg/mL; in test [8] it was above 50 µg/mL. Further, the IC50 (µg/ml), pseudovirus neutralization was 4.39 µg/mL in test [9]; above 50 µg/mL in test [11]; above 50 µg/mL in test [12]; 28.2 µg/mL in test [13]; 22.5 µg/mL in test [14]; above 50 µg/mL in [15]. The IC50 (µg/ml), pseudovirus neutralization is above 50 µg/mL in test [16], above 50 µg/mL in test [17], 13.8 µg/mL in [18] and above 50 µg/mL in test [19]. Also, the 50% inhibitory concentration (IC50) is above 50 µg/mL in test [5] and 0.95 µg/mL in test [10].

In the case of 4E10 (antibody), in test [1], the IC50, pseudovirus neutralization amounted to 1.55 µg/mL. For the same substance, the IC50 (µg/ml), pseudovirus neutralization was determined as 4.87 µg/mL in test [2]; 13.6 µg/mL in [3]; 4.55 µg/mL in test [4]; 9.44 µg/mL in [6]; 0.91 µg/mL in test [7]; 3.24 µg/mL in [8]. The IC50 (µg/ml), pseudovirus neutralization in test [9] is 12.7 µg/mL; in test [11], 1.07 µg/mL; in [12], 1.19 µg/mL; in [13], 6.32 µg/mL; in test [14] it was 14.5 µg/mL; in test [15] it was 15.5 µg/mL. The IC50 (µg/ml), pseudovirus neutralization in test [16] worked out at 3.14 µg/mL; in test [17] it was 4.09 µg/mL; in test [18], 9.87 µg/mL; in [19], 2.88 µg/mL. Moreover, the IC50 stood at 2.85 µg/mL in [5] and 2.61 µg/mL in test [10].

5114_A19 (PGT-128) (antibody) yielded an IC50 in test [20] of 0.005 µg/mL. Further, in [21], the IC50 neutralization was determined as 0.045 µg/mL. Also, the IC50 (µg/mL), pseudovirus neutralization in test [22] is 0.019 µg/mL; in test [23] it was 8.85 µg/mL; in test [24], above 50 µg/mL; in [26], 0.008 µg/mL; in test [27], above 50 µg/mL; in [28], above 50 µg/mL. The substance further gave a Polyclonal Transfectant Neutralization Index in test [25] of 32.2. For the same substance, the Primary Neutralization Index (B cell culture supernatant) in test [25] amounted to 17.1.

Turning to 5136_H01 (PGT-131) (antibody), the half-maximal inhibitory concentration (IC50) in test [20] stood at 0.168 µg/mL. This substance yielded an IC50 neutralization in [21] above 50 µg/mL. The IC50 (µg/mL), pseudovirus neutralization in test [22] is 19.6 µg/mL; in [23], 4.14 µg/mL; in [24] it was above 50 µg/mL; in test [26], 0.466 µg/mL; in [27], above 50 µg/mL; in [28], above 50 µg/mL. Further, the Primary Neutralization Index (B cell culture supernatant) in test [25] is 1.2.

Take 5147_N06 (PGT-130) (antibody): the values for the IC50 neutralization in [29], in test [30] and in test [21] were 0.635 µg/mL, 0.0345 µg/mL and 8.55 µg/mL, respectively. Further, the IC50, pseudovirus neutralization in test [31] came out at 0.474 µg/mL. In [20], the 50% inhibitory concentration (IC50) stood at 0.039 µg/mL. Also, the IC50 (µg/mL), pseudovirus neutralization was 0.651 µg/mL in test [22]; 0.429 µg/mL in [23]; above 50 µg/mL in test [24]; 0.074 µg/mL in test [26]; above 50 µg/mL in test [27]; above 50 µg/mL in test [28]. The Polyclonal Transfectant Neutralization Index in [25] worked out at 1.05. For the same substance, the Primary Neutralization Index (B cell culture supernatant) in [25] was 3. The same substance showed a Neutralization by PGT-130, IC50 in [32] of 0.947 µg/mL. In [32], this substance displayed a Neutralization by PGT-130, IC80 above 10 µg/mL. The same substance registered a Neutralization by PGT-130, IC90 in test [32] above 10 µg/mL. This substance also yielded a Neutralization by PGT-130, IC95 in test [32] above 10 µg/mL. In test [32], this substance returned a neutralization IC50 (pseudovirus) of 0.947 µg/mL.

Regarding 5329_C19 (PGT-136) (antibody), the IC50 neutralization in test [29] was above 10 µg/mL; in [30] it was above 10 µg/mL; in test [21], above 50 µg/mL. This substance also registered an IC50, pseudovirus neutralization in test [31] above 10 µg/mL. In test [20], the 50% inhibitory concentration (IC50) was determined as 2.33 µg/mL. Moreover, the IC50 (µg/mL), pseudovirus neutralization in [22], in [23], in test [24], in test [26], in test [27] and in test [28] was above 50 µg/mL throughout. The same substance had a Primary Neutralization Index (B cell culture supernatant) in test [25] of 6. In test [32], this substance came in with an IC50 (neutralizing activity, pseudovirus) above 10 µg/mL.

Take 5343_B08 (PGT-135) (antibody): the results for the IC50 neutralization in test [29], in test [30] and in test [21] were above 10 µg/mL, 0.545 µg/mL and above 50 µg/mL, respectively. This substance also returned an IC50, pseudovirus neutralization in [31] above 10 µg/mL. In [20], this substance returned an IC50 of 0.067 µg/mL. The IC50 (µg/mL), pseudovirus neutralization in test [22] was above 50 µg/mL; in test [23], above 50 µg/mL; in [24], 41.9 µg/mL; in test [26], above 50 µg/mL; in [27], above 50 µg/mL; in test [28] it was above 50 µg/mL. The Primary Neutralization Index (B cell culture supernatant) in [25] was determined as 6.5. The same substance showed an IC50 (neutralizing activity, pseudovirus) in test [32] above 10 µg/mL.

Consider 5345_I01 (PGT-137) (antibody), for which, in test [20], the half-maximal inhibitory concentration (IC50) was 0.005 µg/mL. Moreover, the IC50 neutralization in test [21] was above 50 µg/mL. For the same substance, the IC50 (µg/mL), pseudovirus neutralization in [22], in test [23], in test [24], in test [26], in test [27] and in [28] was above 50 µg/mL each time. The same substance showed a Primary Neutralization Index (B cell culture supernatant) in test [25] of 11.3.

In general, IC50 refers to the concentration at which inhibition is half-maximal. Read a low IC50 as greater potency in that assay.
